According to patent US5789237, “Nucleic acid sequences coding for or complementary to nucleic acid sequences coding for interleukin 9 receptor” (Ludwig Institute for Cancer Research, dated 1998):

Biological target: T1, purified recombinant murine IL9, 125I labelled (murine, UniProt P15247, 125I label)
T1 sequence: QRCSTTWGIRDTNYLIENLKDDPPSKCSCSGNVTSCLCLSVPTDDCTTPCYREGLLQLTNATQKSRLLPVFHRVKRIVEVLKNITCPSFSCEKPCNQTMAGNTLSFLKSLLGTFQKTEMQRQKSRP
Experiment: Scatchard analysis on transfected COS cells
Procedure: In order to make sure that clone p9RA1 and all subsequent clones did in fact express IL9R. Scatchard analysis was carried out on transfected COS cells, following Goodwin et al., Cell 60: 941–951 (1990). […] This is slightly higher than the dissociation constant measured on TS1 cells previously, i.e., 67 pM.

B1: murine IL-9 receptor encoded by clone p9RC4 (receptor)
chain: VSVPEQGGGGQKAGAFTCLSNSIYRIDCHWSAPELGQESRAWLLFTSNQVTEIKHKCTFWDSMCTLVLPFEEVFLPFDNFTITLHRCIMGQEQVSLVDSQYLPRRHIKLDPPSDLQSNVSSGRCVLTWGINLALEPLITSLSYELAFKRQEEAWEARHKDRIVGVTWLILEAVELNPGSIYEARLRVQMTLESYEDKTEGEYYKSHWSEWSQPVSFPSPQRRQGLLVPRWQWSASILVVVPIFLLLTGFVHLLFKLSPRLKRIFYQNIPSPEAFFHPLYSVYHGDFQSWTGARRAGPQARQNGVSTSSAGSESSIWEAVATLTYSPACPVQFACLKWEATAPGFPGLPGSEHVLPAGCLELEGQPSAYLPQEDWAPLGSARPPPPDSDSGSSDYCMLDCCEECHLSAFPGHTESPELTLAQPVALPVSSRA
  Kd: 0.126 nM

B2: murine IL-9 receptor encoded by clone p9RA1 (receptor)
chain: VSVPEQGGGGQKAGAFTCLSNSIYRIDCHWSAPELGQESRAWLLFTSNQVTEIKHKCTFWDSMCTLVLPFEEVFLPFDNFTITLHRCIMGQEQVSLVDSQYLPRRHIKLDPPSDLQSNVSSGRCVLTWGINLALEPLITSLSYELAFKRQEEAWEQARHKDRIVGVTWLILEAVELNPGSIYEARLRVQMTLESYEDKTEGEYYKSHWSEWSQPVSFPSPQRRQGLLVPRWQWSASILVVVPIFLLLTGFVHLLFKLSPRLKRIFYQNIPSPEAFFHPLYSVYHGDFQSWTGARRAGPQARQNGVSTSSAGSESSIWEAVATLTYSPACPVQFACLKWEATA
  Kd: 0.194 nM
